Experimental data published in the supplement of paper PMC9876800.

Tested on: peptide library, one residue held at a place counted from the S/T acceptor
Experiment: relative phosphorylation of the sub-library (ratio to the mean residue at this position); higher = residue favoured
Conditions: human
Summary of the method: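 In 384-well plates, purified recombinant kinases (human or orthologue constructs) were incubated for 90 min under kinase-specific conditions with 50 μM biotinylated degenerate peptide sub-libraries and 50 μM ATP spiked with γ-32P-ATP. Each sub-library fixed a single residue at one position around a central Ser/Thr. Relative sub-library phosphorylation, measured by phosphorimaging and densitometry of streptavidin membrane spots, is given as a ratio to the mean residue at that position.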

Sequence of CDK14, construct: Full length (O94921 whole entry, looked up): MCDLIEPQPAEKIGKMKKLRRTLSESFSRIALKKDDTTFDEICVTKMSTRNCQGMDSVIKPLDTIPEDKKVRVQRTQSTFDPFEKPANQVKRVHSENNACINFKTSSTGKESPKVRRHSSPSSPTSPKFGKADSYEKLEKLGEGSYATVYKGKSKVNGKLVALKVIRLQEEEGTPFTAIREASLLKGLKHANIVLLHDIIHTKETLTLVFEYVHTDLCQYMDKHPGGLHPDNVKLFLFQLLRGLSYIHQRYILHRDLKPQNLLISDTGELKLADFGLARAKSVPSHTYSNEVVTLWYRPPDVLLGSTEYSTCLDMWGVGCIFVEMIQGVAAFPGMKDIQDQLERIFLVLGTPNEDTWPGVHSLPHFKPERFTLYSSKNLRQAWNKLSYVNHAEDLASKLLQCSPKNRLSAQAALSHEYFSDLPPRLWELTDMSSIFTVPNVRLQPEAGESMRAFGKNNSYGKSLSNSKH
Sequence of DCLK1, construct: aa351-689 (O15075 351-689, looked up): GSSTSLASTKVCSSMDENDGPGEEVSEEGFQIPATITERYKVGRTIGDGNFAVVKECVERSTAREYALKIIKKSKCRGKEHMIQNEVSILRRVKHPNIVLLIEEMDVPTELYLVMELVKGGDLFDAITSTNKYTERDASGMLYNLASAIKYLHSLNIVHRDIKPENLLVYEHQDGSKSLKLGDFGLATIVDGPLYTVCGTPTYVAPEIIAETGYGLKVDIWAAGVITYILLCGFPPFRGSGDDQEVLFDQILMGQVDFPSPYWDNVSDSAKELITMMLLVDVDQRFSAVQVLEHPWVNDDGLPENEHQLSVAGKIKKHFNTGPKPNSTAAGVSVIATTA
Sequence of TRPM7, construct: aa1158-1865 (Q96QT4 1158-1865, looked up): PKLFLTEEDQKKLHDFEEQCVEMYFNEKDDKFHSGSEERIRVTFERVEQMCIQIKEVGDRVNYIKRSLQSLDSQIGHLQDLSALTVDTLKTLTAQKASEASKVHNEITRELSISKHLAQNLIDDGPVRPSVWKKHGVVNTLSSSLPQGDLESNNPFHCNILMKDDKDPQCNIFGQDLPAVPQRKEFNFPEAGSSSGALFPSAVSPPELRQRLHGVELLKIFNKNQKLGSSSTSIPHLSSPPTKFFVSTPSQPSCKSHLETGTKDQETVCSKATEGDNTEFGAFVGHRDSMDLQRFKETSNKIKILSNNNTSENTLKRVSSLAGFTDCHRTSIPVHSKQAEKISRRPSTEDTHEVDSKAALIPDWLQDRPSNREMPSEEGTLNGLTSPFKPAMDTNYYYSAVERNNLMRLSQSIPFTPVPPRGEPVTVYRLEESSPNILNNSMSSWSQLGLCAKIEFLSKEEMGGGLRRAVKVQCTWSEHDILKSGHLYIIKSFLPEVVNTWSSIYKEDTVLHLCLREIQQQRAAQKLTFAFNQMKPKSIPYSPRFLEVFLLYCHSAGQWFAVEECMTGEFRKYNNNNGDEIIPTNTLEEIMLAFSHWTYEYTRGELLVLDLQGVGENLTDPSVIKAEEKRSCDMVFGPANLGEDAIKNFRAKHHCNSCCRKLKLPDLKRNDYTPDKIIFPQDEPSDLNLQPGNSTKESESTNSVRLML

DCLK1, construct: aa351-689 (from UniProt O15075)
relative phosphorylation
Conditions	at +1	at +2	at +3	at +4	at -1	at -2	at -3	at -4	at -5
A fixed	0.741	1.04	0.876	0.928	0.957	1.35	0.773	1.13	1.09
D fixed	0.495	0.579	0.771	0.814	0.62	0.651	0.307	0.553	0.468
E fixed	0.508	0.36	0.817	0.761	0.362	1.5	0.386	0.912	0.452
F fixed	2.44	1.04	0.991	1.34	0.427	0.582	0.281	0.617	1.08
G fixed	0.765	0.962	1.25	1.11	1.72	1.45	0.704	1.09	1.07
H fixed	1.01	1.39	1.38	0.944	1.33	1.12	0.979	1.15	1.01
I fixed	0.485	1.08	0.571	0.972	0.277	0.315	0.133	0.462	0.759
K fixed	1.1	0.523	1.27	1.23	2.27	1.5	3.37	2.12	1.56
L fixed	0.774	1.3	0.952	1.03	0.745	0.499	0.245	0.659	1.02
M fixed	1.53	1.48	0.66	1.26	0.797	1.06	0.415	0.947	0.938
N fixed	1.11	0.719	0.988	0.871	1.07	1.12	0.568	0.909	0.716
P fixed	0.274	0.63	0.789	1.17	1.37	0.383	0.821	1.08	1.16
Q fixed	1.13	0.626	1.16	0.925	0.958	1.75	0.771	1.04	0.907
R fixed	1.22	0.52	1.46	1.05	2.01	1.78	6.04	1.92	1.68
V fixed	0.705	1.23	0.79	0.889	0.529	0.464	0.244	0.665	0.886
W fixed	1.34	1.59	1.32	0.929	0.528	0.685	0.475	0.876	1.36
Y fixed	1.38	1.94	0.953	0.781	1.03	0.785	0.486	0.861	0.832
pThr fixed	0.78	0.776	0.779	1.2	0.322	0.357	0.407	0.688	0.712
pTyr fixed	1.01	2.9	0.913	0.688	0.585	0.497	0.391	0.683	0.813

CDK14, construct: Full length (from UniProt O94921)
relative phosphorylation
Conditions	at +1	at +2	at +3	at +4	at -1	at -2	at -3	at -4	at -5
A fixed	0.252	0.535	0.827	0.626	0.896	0.722	0.989	0.958	0.859
D fixed	0.129	0.365	0.343	0.472	0.376	0.251	0.328	0.625	0.582
E fixed	0.123	0.292	0.266	0.344	0.366	0.258	0.438	0.592	0.521
F fixed	0.298	0.793	1.44	0.708	0.704	0.777	0.768	0.725	0.798
G fixed	1.29	0.619	0.785	1.64	2.02	0.774	1.29	1.08	1.13
H fixed	0.294	1.19	0.793	1.08	0.835	0.972	0.974	0.978	1.34
I fixed	0.332	1.25	1.03	0.677	0.324	0.749	0.879	1.39	1.22
K fixed	0.38	2	0.937	1.84	1.44	1.14	1.09	1.59	1.78
L fixed	0.392	1.39	2.38	0.74	1.04	1.29	0.839	1.2	1.23
M fixed	0.345	1.1	1.97	0.88	1.36	1.11	0.875	0.942	1.06
N fixed	0.247	0.858	0.6	1.04	0.873	0.701	0.75	1.19	1.15
P fixed	11.4	0.665	1.28	1.07	1.77	2.49	1.43	1.01	0.957
Q fixed	0.286	0.854	0.772	0.935	0.863	0.794	0.756	0.843	0.822
R fixed	0.377	2.41	1.02	2.69	1.92	2.6	3	1.31	1.17
V fixed	0.305	1.05	0.764	0.582	0.421	0.724	0.753	0.717	0.71
W fixed	0.301	0.713	1.09	0.962	0.802	0.995	0.955	1.06	0.823
Y fixed	0.257	0.92	0.698	0.714	0.984	0.648	0.884	0.78	0.865
pThr fixed	0.511	0.842	0.801	0.524	0.457	0.755	0.839	0.879	0.885
pTyr fixed	0.609	0.486	0.841	0.387	0.427	0.42	0.605	0.531	0.697

TRPM7, construct: aa1158-1865 (from UniProt Q96QT4)
relative phosphorylation
Conditions	at +1	at +2	at +3	at +4	at -1	at -2	at -3	at -4	at -5
A fixed	0.649	1.18	1.19	0.591	0.902	1.13	0.852	1.08	1.17
D fixed	0.266	0.121	0.341	0.604	0.484	0.551	0.659	0.821	0.972
E fixed	0.501	0.0976	0.256	0.561	0.489	0.576	0.836	1.07	1.05
F fixed	0.859	1.81	0.854	0.958	0.58	1.19	1.06	1.19	1.03
G fixed	0.451	0.661	0.904	0.871	0.406	1.28	0.897	1.08	1.4
H fixed	1.1	1.22	1.22	1.34	1.47	0.842	1.05	0.86	1.1
I fixed	1.26	0.601	0.42	0.781	0.46	0.446	0.686	0.668	0.532
K fixed	2.16	1.21	2.47	2.09	2.76	0.931	1.13	1.31	1.24
L fixed	1.18	0.477	0.662	0.859	0.996	0.868	1.01	0.872	0.608
M fixed	1.06	0.808	0.664	1.12	0.969	1.42	1.19	1.17	0.767
N fixed	0.54	0.445	1.11	1.16	1.25	0.857	1.48	1.09	1.2
P fixed	0.142	1.42	0.623	0.676	0.896	1.28	1.07	0.972	1.1
Q fixed	1.58	1.11	1.15	1.17	1.07	1.11	0.995	0.948	1.01
R fixed	2.14	2.06	2.52	1.61	2.11	0.975	1.36	1.17	1.29
V fixed	1.1	0.572	0.573	0.637	0.586	0.553	0.74	0.675	0.732
W fixed	0.79	1.4	0.831	1.13	0.487	2.17	1.02	1.12	0.976
Y fixed	1.22	1.81	1.21	0.852	1.08	0.822	0.954	0.884	0.811
pThr fixed	0.455	0.317	0.499	0.68	0.488	0.704	0.893	1.11	1.05
pTyr fixed	0.856	0.489	0.677	0.541	0.776	0.675	1.09	0.916	1.08
